In patent US20210253718A1, “FRIZZLED5 PROTEIN-BINDING AGENTS” (Modmab Therapeutics Corporation, priority 2016, published 2021):

Experiments:
Experiment in all cases: Immunofluorescence of anti-FZD5 Fab binding to CHO cells overexpressing Frizzled CRD
Set-up in all cases: key: −: no binding; +: very weak binder; ++: weak binder; +++: good binder; ++++: very good binder
FZD6 CRD = molecular target: T1, FZD6 CRD (Homo sapiens, UniProt O60353)
T1 construct: S20-P146; GPI anchor signal (C); expressed in transfected cells; host or cells: CHO cells, lentiviral pLenti-puro
T1 sequence (O60353 20-146): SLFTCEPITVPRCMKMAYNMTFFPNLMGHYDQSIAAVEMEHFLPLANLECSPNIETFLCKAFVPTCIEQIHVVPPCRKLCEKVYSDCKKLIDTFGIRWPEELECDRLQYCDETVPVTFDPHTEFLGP
Outline: (§1)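 Using immunofluorescence plus flow cytometry, we examine Fab binding to surface CRDs of individual Frizzled receptors, each expressed on CHO cells as a myc-GPI fusion from a lentiviral vector.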

FZD10 CRD = molecular target: T2, FZD10 CRD (Homo sapiens, UniProt Q9ULW2)
T2 construct: 30-156; GPI anchor signal (C); expressed in transfected cells; host or cells: CHO cells, lentiviral pLenti-puro
T2 sequence (Q9ULW2 30-156): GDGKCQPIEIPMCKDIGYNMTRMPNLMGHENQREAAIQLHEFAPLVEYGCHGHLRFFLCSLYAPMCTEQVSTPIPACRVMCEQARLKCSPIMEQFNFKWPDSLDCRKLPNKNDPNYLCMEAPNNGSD
Outline: as §1

FZD2 CRD = molecular target: T3, FZD2 CRD (Homo sapiens, UniProt Q14332)
T3 construct: D35-P161; GPI anchor signal (C); expressed in transfected cells; host or cells: CHO cells, lentiviral pLenti-puro
Outline: as §1

FZD9 CRD = molecular target: T4, FZD9 CRD (Homo sapiens, UniProt O00144)
T4 construct: G35-A161; GPI anchor signal (C); expressed in transfected cells; host or cells: CHO cells, lentiviral pLenti-puro
T4 sequence (O00144 35-161): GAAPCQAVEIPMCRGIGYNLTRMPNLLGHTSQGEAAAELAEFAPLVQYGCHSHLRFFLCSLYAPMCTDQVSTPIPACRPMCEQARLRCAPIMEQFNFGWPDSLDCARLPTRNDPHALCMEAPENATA
Outline: as §1

FZD5 CRD = molecular target: T5, FZD5 CRD (Homo sapiens, UniProt Q13467)
T5 construct: K29-T156; GPI anchor signal (C); expressed in transfected cells; host or cells: CHO cells, lentiviral pLenti-puro
T5 sequence (Q13467 29-156): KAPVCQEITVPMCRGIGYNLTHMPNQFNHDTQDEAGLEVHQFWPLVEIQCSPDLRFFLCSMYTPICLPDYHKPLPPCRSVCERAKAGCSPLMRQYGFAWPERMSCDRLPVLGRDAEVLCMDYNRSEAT
Outline: as §1

FZD4 CRD = molecular target: T6, FZD4 CRD (Homo sapiens, UniProt Q9ULV1)
T6 construct: E42-V167; GPI anchor signal (C); expressed in transfected cells; host or cells: CHO cells, lentiviral pLenti-puro
T6 sequence (Q9ULV1 42-167): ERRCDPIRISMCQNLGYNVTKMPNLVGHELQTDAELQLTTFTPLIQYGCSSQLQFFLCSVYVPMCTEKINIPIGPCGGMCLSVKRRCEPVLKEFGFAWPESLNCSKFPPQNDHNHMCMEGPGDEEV
Outline: as §1

FZD1 CRD = molecular target: T7, FZD1 CRD (Homo sapiens, UniProt Q9UP38)
T7 construct: D112-P238; GPI anchor signal (C); expressed in transfected cells; host or cells: CHO cells, lentiviral pLenti-puro
Outline: as §1

- Immunofluorescence binding, Frizzled CRD overexpressed on CHO cells: FZD6 (FZD6 CRD): −
- Immunofluorescence binding, Frizzled CRD overexpressed on CHO cells: FZD10 (FZD10 CRD): −
- Immunofluorescence binding, Frizzled CRD overexpressed on CHO cells: FZD2 (FZD2 CRD): −
- Immunofluorescence binding, Frizzled CRD overexpressed on CHO cells: FZD9 (FZD9 CRD): −
- Immunofluorescence binding, Frizzled CRD overexpressed on CHO cells: FZD5 (FZD5 CRD): ++++
- Immunofluorescence binding, Frizzled CRD overexpressed on CHO cells: FZD4 (FZD4 CRD): −
- Immunofluorescence binding, Frizzled CRD overexpressed on CHO cells: FZD1 (FZD1 CRD): −
B1: Fab-2926: anti-FZD5 Fab with antibody variable region Fv-2926; CDR SEQ ID NOs: 35, 36, 65, 103, 141, 173 (antibody, V domains shown)
VH: EVQLVESGGGLVQPGGSLRLSCAASGFNIYSSYMHWVRQAPGKGLEWVASIYPSSSSTSYADSVKGRFTISADTSKNTAYLQMNSLRAEDTAVYYCARGGLDYWGQGTLVTVSS
VL: DIQMTQSPSSLSASVGDRVTITCRASQSVSSAVAWYQQKPGKAPKLLIYSASSLYSGVPSRFSGSRSGTDFTLTISSLQPEDFATYYCQQWYHGGSLFTFGQGTKVEIK
